Experiments:
Test in all cases: sandwich ELISA: antibody coated at 1 µg/ml, purified F protein titrated (after 4 weeks at 4 °C), detection with biotinylated CR9506
[1] = molecular target: T1, pre-fusion RSV F protein RSV172527 (respiratory syncytial virus subgroup A …, UniProt P12568 27-109; P03420 137-513)
T1 construct: Soluble F ectodomain
T1 chain 1: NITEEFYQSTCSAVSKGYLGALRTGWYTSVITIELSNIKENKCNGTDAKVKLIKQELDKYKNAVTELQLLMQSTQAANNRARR
T1 chain 2: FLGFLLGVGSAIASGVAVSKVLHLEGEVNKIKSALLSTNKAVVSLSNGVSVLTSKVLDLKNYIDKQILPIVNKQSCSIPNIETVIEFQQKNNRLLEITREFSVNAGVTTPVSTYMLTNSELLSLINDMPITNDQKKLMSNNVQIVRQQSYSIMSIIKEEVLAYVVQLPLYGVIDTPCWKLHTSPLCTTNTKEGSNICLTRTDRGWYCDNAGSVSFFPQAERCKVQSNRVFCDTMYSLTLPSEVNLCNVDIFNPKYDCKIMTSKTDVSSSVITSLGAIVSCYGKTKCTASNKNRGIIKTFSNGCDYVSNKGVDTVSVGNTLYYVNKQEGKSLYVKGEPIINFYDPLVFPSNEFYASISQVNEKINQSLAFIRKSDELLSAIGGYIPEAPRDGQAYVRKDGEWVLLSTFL

[2] = molecular target: T2, pre-fusion RSV F protein RSV180305 (respiratory syncytial virus subgroup A …, UniProt P12568 27-109; P03420 137-513)
T2 construct: Soluble F ectodomain; also called RSV pre-F (RSV180305)

[3] = molecular target: T3, control pre-fusion F protein RSV150042 (respiratory syncytial virus subgroup A, UniProt P03420 27-109; P03420 137-513)
T3 construct: Control protein described in WO2017/174568; also called PRPM

Measured: binding result

B1: monoclonal antibody CR9506 (antibody, human IgG1, kappa, V domains shown)
VH: EVQLVQSGAEVKKPGSSVKVSCKASGGTFSRSLITWVRQAPGQGLEWMGEISLVFGSAKNAQKFQGRVTITADESTSTAHMEMISLKHEDTAVYYCAAHQYGSGTHNNFWDESELRFDLWGQGTLVTVSS
VL: DIVMTQSPSSLSASVGDRVTIACRASQSIGTYLNWYQQKPGKAPKLLIYAASSLQSGVPSRFSGSGSGTHFTLAISSLQAEDFATYSCQQSYTIPYTFGQGTKLEIKR
notes: In the ELISA, CR9506 was coated as a capture antibody and also used biotinylated for detection; also called Mab CR9506
binds: [1] | [2] | [3]

From patent publication US20220017574A1 (Janssen / Centocor, published 2022)
